# B1: late competence protein ComFB from Bacillus subtilis, N-terminally 6xHis-tagged, wild type (natural protein, B. subtilis)
# chain: MLVNSKEIVMKELLDRYMDQLHMACTCQVCQNDVLALSLNKVSPSYVTDFKKIAYTKAELVDKQKNTAMLVILAESAAVVSESPSDLCQTKQEEAFIN
# notes: ComFB, second protein of the comF operon of Bacillus subtilis, amplified from chromosomal DNA of strain PY79; the purified tagged monomer is 13.5 kDa; the crystal model holds residues 1-91 (chain A); By LC-ESI MS the first methionine is removed; Each subunit holds one Zn2+ ion (C25, C27, C30, C88); The histidine tag was uncleaved in the crystals; also called His6-ComFB; native ComFB; source: E. …
# Target: the molecule itself
# Assay: SEC; Superdex75 10/300 column, calibrated with standards of known molecular weight; wild type and variants at similar concentrations
protein,measurement,value
B1,stoichiometry N,2

# Reference: publication PMC4381287, “Structural characterization of the late competence protein ComFB from Bacillus subtilis” (Bioscience Reports, 2014)
